Drawing on publication PMC3587573, this text covers maximal inhibition of Pf by cytosolic acidification in oocytes co-injected with BvPIP2;1 and BvPIP1;1 cRNA (1:1 mass ratio); not significantly different from BvPIP2;1 alone, oocyte membrane Pf on co-injection of BvPIP1;1 and BvPIP2;1 N64H/E65Q cRNA, against the mutant alone and oocyte membrane Pf on co-injection of BvPIP1;1 and BvPIP2;1 N64I/E65Q cRNA, against the mutant alone for three substances.

For experiment [1], the target named is BvPIP1;1 (Beta vulgaris).
The target in experiment [2] is BvPIP1;1 (Beta vulgaris). The source holds these as a separate data set.

On to BvPIP2;1 (natural protein), for which the maximal inhibition of Pf by cytosolic acidification in oocytes co-injected with BvPIP2;1 and BvPIP1;1 cRNA (1:1 mass ratio); not significantly different from BvPIP2;1 alone in the experiment with BvPIP1;1 (Beta vulgaris) [1] is 87%.

As for BvPIP2;1 N64H/E65Q (natural protein), the oocyte membrane Pf on co-injection of BvPIP1;1 and BvPIP2;1 N64H/E65Q cRNA, against the mutant alone with BvPIP1;1 (Beta vulgaris) [2] was found to be 4.3 fold.

BvPIP2;1 N64I/E65Q (natural protein) gave an oocyte membrane Pf on co-injection of BvPIP1;1 and BvPIP2;1 N64I/E65Q cRNA, against the mutant alone in the experiment with BvPIP1;1 (Beta vulgaris) [2] of 4.1 fold.
